The target in data set [1] is FKBP fused to miRFP-GAF670 (UniProt P62942). Put plainly: cell-based or functional assay.
For data set [2], the target named is FKBP fused to miRFP-GAF709 (UniProt P62942). Nature of the data set: cell-based or functional assay.
Data set [3] deals with the molecule itself. Put plainly: sedimentation velocity analytical ultracentrifugation in PBS at 20 C, self-association (no dimer). Here is the method: FIG. 11A-11B. Monomeric state of miRFPs confirmed by analytical ultracentrifugation analysis. miRFPs from each family of miRFPs were analyzed by sedimentation velocity analytical ultracentrifugation. miRFP670 represents miRFP proteins derived from RpBphP1; miRFP670-2 represents monomerized iRFP670 and iRFP702 derived from RpBphP6; miRFP720 represents monomerized iRFP682, iRFP713, and iRFP720 derived from RpBphP2. The proteins were analyzed at concentrations of 15 μM in PBS buffer at 20° C., the time-derivative method was used. (a) Overlay of the sedimentation coefficient distributions for iRFP670-2 (blue), iRFP713 (red), miRFP720 (magenta), and miRFP670 (cyan). (b) Overlay of the normalized best-fit sedimentation coefficient distributions. (c) The residuals corresponding to the resolved fits shown in (b).
Analytical ultracentrifugation was conducted at 20° C. and 58,000 r.p.m. with anOptima XL-I centrifuge (Beckman Coulter) using the AN-60Ti rotor and the absorption optics set to 645 nm. Sednterp v.20120828beta software was used to calculate the partial specific volume of the proteins from their sequence and the density and viscosity of the buffers. The sedimentation parameters were corrected to standard conditions (20,w) using these values. […]

Data set [4] deals with the molecule itself. Nature of the data set: size exclusion chromatography, self-association (no dimer). The source says: As a result, we have obtained miRFP670 (excitation/emission at 642 nm/670 nm) having Cys in the GAF domain and its dimmer version miRFP670v1 (Table 1). By changing Cys back to Ile and mutating residues 201 and 202, we found two red-shifted variants, miRFP703 (excitation/emission at 673 nm/703 nm) and miRFP709 (excitation/emission at 686 nm/709 nm) (Table 1). […] Absorbance of miRFPs was characterized by small side peaks at 280 nm (protein absorbance) and 390 nm (so called Soret band common to all tetrapyrrole compounds) and by large main peaks at 644 nm, 676 nm and 685 nm, indicative of the efficient BV incorporation. Monomeric states of miRFPs was confirmed by a size exclusion chromatography at 1 mg/ml as well as at concentrations as high as 30 mg/ml (FIG. 1d).
To perform size exclusion liquid chromatography a 2 ml volume of purified miRFPs was applied on the HiLoad 16/600 Superdex 200 column (GE Healthcare) equilibrated with 10 mM Hepes buffer pH 7.4 containing 50 μM EDTA, 10% glycerol, 150 mM NaCl, 1 mM DTT, 0.2 mM PMSF, 0.01% EP-40 and 0.2 mM […]. A 1 ml/min flow rate was used. The column was calibrated using the gel filtration standards (Bio-Rad Laboratories).
(Size exclusion chromatography separates by hydrodynamic size, large species first.)

For data set [5], the target named is T1, miRFP-GAF670.
T1 construct: Split fragment; in the experiments it stood as a fusion (to FKBP or PCP); also called GAF fragment of miSplit670
T1 chain: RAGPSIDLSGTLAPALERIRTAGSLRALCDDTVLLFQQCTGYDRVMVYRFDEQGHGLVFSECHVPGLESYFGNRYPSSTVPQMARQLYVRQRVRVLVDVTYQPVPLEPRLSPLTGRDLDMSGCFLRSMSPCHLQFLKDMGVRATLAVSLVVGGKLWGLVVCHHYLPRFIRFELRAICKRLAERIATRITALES
Nature of the data set: bimolecular fluorescence complementation in HeLa cells (fragments as FRB and FKBP fusions, rapamycin-induced). Here is the method: (§1) The two mSplits share the same miRFP-PAS fragment that can interact with either miRFP-GAF670 or miRFP-GAF709 fragments producing the fluorescence signal corresponding to complemented miSplit670 or miSplit709, respectively. (b, c) Brightness and complementation contrast of miSplit670 (b) and miSplit709 (c) in live HeLa cells. HeLa cells were transiently transfected with the plasmids encoding the indicated proteins. Rapamycin (Rapa) was added where indicated. The mean fluorescence intensities of cells were analyzed by flow cytometry. Error bars, s.d. (n=3; transfection experiments). (d) Two-color imaging of two alternative PPIs in one cell. […] MCP and PCP are fused with two fragments of mi Split reporter. mRNA serves as a scaffold to bring two split fragments together and reconstitute fluorescence. […] The mean fluorescence intensities of cells were analyzed by flow cytometry. […] (g) Representative images of live HeLa cells analyzed in (f). […]
(§2) We first characterized miSplits using a rapamycin-induced PPI of FRB and FKBP proteins. We fused FRB to the miRFP-PAS domain and FKBP to either miRFP-GAF670 or miRFP-GAF709 domains and tested their effective brightness and BiFC contrast (the ratio between a stimulus-induced fluorescence signal and a fluorescence signal originated from non-specific complementation) in mammalian cells.

Data set [6] deals with T2, miRFP-GAF709.
T2 construct: Split fragment; in the experiments it stood as a fusion (to FKBP or PCP); also called GAF fragment of miSplit709
T2 chain: T1 chain with T79F, V80I, C131I
Described as above. Here is the method:
as §1, §2

Numbering of substitutions follows the chain as printed.

Consider “FRB fused to miRFP-PAS (from UniProt P42345 2021-2113)”, for which, in data set [1], the BiFC contrast 0.5 h after rapamycin addition was determined as 2 fold; the BiFC contrast (the ratio between a stimulus-induced fluorescence signal and a fluorescence signal originated from non-specific complementation), miSplit670, HeLa cells, flow cytometry, 50 nM rapamycin is > 20 fold; the effective brightness of the complemented miSplit670 relative to parental full-length miRFP is > 40%. Also, in data set [2], the BiFC contrast 0.5 h after rapamycin addition stood at 2 fold; the BiFC contrast (the ratio between a stimulus-induced fluorescence signal and a fluorescence signal originated from non-specific complementation), miSplit709, HeLa cells, flow cytometry, 50 nM rapamycin is > 20 fold; the effective brightness of the complemented miSplit709 relative to parental full-length miRFP is > 40%.

B1: miRFP720 (other)
chain: MAEGSVARQPDLLTCDDEPIHIPGAIQPHGLLLALAADMTIVAGSDNLPELTGLAIGALIGRSAADVFDSETHNRLTIALAEPGAAVGAPITVGFTMRKDAGFIGSWHRHDQLIFLELEPPQRDVAEPQAFFRRTNSAIRRLQAAETLESACAAAAQEVRKITGFDRVMIYRFASDFSGSVIAEDRCAEVESKLGLHYPASFIPAQARRLYTINPVRIIPDINYRPVPVTPDLNPVTGRPIDLSFAILRSVSPNHLEFMRNIGMHGTMSISILRGERLWGLIVCHHRTPYYVDLDGRQACKRVAERLATQIGVMEE
modifications: biliverdin (BV) chromophore
notes: Monomerized version of dimeric iRFP720 (derived from RpBphP2); also called monomerized iRFP720
For the molecule B1, the binding result in data set [3] is “no binding (tested: 15 µM)”.

B2: miRFP670-2 (other)
chain: MARKVDLTSCDREPIHIPGSIQPCGCLLACDAQAVRITRITENAGAFFGRETPRVGELLADYFGETEAHALRNALAQSSDPKRPALIFGWRDGLTGRTFDISLHRHDGTSIIEFEPAAAEQADNPLRLTRQIIARTKELKSLEEMAARVPRYLQAMLGYHRVMLYRFADDGSGMVIGEAKRSDLESFLGQHFPASLVPQQARLLYLKNAIRVVSDSRGISSRIVPEHDASGAALDLSFAHLRSISPCHLEFLRNMGVSASMSLSIIIDGTLWGLIICHHYEPRAVPMAQRVAAKRFAERLSTHFTAAHHQR
modifications: biliverdin (BV) chromophore
notes: Monomerized version of dimeric iRFP670 (derived from RpBphP6); also called monomerized iRFP670
For B2, the binding result in data set [3] is “no binding (tested: 15 µM)”.

B3: miRFP670 (other)
chain: MVAGHASGSPAFGTASHSNCEHEEIHLAGSIQPHGALLVVSEHDHRVIQASANAAEFLNLGSVLGVPLAEIDGDLLIKILPHLDPTAEGMPVAVRCRIGNPSTEYCGLMHRPPEGGLIIELERAGPSIDLSGTLAPALERIRTAGSLRALCDDTVLLFQQCTGYDRVMVYRFDEQGHGLVFSECHVPGLESYFGNRYPSSTVPQMARQLYVRQRVRVLVDVTYQPVPLEPRLSPLTGRDLDMSGCFLRSMSPCHLQFLKDMGVRATLAVSLVVGGKLWGLVVCHHYLPRFIRFELRAICKRLAERIATRITALES
modifications: biliverdin (BV) chromophore; filing says miRFP670 has the BV-binding Cys in the GAF domain (-PIH- motif Ile replaced by Cys)
notes: Monomeric near-infrared fluorescent protein engineered from the PAS-GAF domains of RpBphP1; also called mRFP670
On to B3, for which the binding result in data set [4] was “no binding (tested: 30 mg/ml)”.

B4: miRFP709 (other)
chain: B3 chain with T201F, V202I, C253I
modifications: biliverdin (BV) chromophore bound to the conserved Cys residue in the PAS domain
notes: Engineered from RpBphP1 PAS-GAF
With B4, the binding result in data set [4] is recorded as “no binding (tested: 30 mg/ml)”.

B5: miRFP703 (other)
chain: B3 chain with T201L, C253I
modifications: biliverdin (BV) chromophore bound to the conserved Cys residue in the PAS domain
notes: as for B4
As for B5, the binding result in data set [4] was “no binding (tested: 30 mg/ml)”.

B6: miRFP-PAS (other)
chain: MVAGHASGSPAFGTASHSNCEHEEIHLAGSIQPHGALLVVSEHDHRVIQASANAAEFLNLGSVLGVPLAEIDGDLLIKILPHLDPTAEGMPVAVRCRIGNPSTEYCGLMHRPPEGGLIIELERAGP
notes: Split fragment; in the experiments it stood as a fusion (to FRB or to MCP); also called miRFP670-PAS domain; PAS fragment of miSplit670 and miSplit709
B6: the binding result in data set [5] and in data set [6] was “binds” throughout.

The record behind these values is patent publication US20180044383A1 (ALBERT EINSTEIN COLLEGE OF MEDICINE, published 2018).
